Data published in patent US6008014.

Biological target: GST-tchvs10a1 fusion protein (plasmid pGEX-4T-2-S10A1) (human)
Assay: BIAcore (SPR); GST-tchvs10a1 captured on anti-GST antibody as ligand, GST-SR-BI at 200 nM as analyte

Substance: GST-SR-BI cytoplasmic domain fusion protein (plasmid pGEX-4T-1-7-5j) (from UniProt Q8WTV0)
- response (RU): 220 RU
